{
  "source": "patent US20090214603A1",
  "about": "(UNIVERSITY OF LOUISVILLE RESEARCH FOUNDATION, published 2009)",
  "assay_in_all_cases": "cell-based or functional assay",
  "key": {"[1]": {"target": "recombinant Mfa1 protein (rMfa1), full-length Mfa1 of P. gingivalis 33277 with a C-terminal penta-histidine tag (Porphyromonas gingivalis) (UniProt B2RHG1)", "sequence (B2RHG1 20-563, tags left off)": "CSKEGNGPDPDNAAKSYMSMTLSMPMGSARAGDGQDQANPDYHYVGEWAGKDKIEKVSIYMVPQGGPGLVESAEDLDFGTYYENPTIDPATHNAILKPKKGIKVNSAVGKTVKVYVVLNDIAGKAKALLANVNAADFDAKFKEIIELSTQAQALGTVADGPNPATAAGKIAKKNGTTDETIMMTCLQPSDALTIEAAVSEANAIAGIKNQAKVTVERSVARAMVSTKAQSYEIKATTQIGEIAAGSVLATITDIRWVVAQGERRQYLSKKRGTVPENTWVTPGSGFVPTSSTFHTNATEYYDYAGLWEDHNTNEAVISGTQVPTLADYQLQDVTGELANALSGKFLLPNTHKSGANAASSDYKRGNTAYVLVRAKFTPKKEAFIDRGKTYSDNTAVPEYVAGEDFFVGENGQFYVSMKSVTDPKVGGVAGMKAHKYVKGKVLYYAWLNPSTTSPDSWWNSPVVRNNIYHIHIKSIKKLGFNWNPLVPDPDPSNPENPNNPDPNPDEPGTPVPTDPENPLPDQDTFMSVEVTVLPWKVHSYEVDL"}, "[2]": {"target": "minor fimbrial antigen Mfa1 of Porphyromonas gingivalis, on intact P. gingivalis ATCC 33277 cells (Porphyromonas gingivalis) (UniProt B2RHG1)"}, "[3]": {"target": "T1, minor fimbrial antigen Mfa1 of Porphyromonas gingivalis, on intact P. gingivalis ATCC 33277 cells (Porphyromonas gingivalis, UniProt B2RHG1 50-563)", "T1 sequence": "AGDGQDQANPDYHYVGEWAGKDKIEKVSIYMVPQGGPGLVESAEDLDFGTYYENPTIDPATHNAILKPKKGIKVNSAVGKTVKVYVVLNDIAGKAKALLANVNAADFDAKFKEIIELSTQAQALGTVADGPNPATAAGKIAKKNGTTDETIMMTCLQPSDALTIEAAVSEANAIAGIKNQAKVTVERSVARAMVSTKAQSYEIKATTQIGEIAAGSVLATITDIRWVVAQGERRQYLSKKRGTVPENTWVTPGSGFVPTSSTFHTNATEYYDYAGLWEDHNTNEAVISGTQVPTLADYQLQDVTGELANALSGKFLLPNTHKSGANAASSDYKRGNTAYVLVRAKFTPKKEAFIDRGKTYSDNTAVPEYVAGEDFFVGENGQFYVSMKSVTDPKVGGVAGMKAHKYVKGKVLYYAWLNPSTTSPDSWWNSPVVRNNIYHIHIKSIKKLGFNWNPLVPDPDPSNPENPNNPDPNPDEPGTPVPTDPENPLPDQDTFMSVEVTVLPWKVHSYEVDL"}},
  "data": [
    {"molecule": "BAR peptide (SspB Adherence Region), synthetic peptide comprising residues 1167 to 1193 of the SspB (antigen I/II) protein of S. gordonii", "values": [
      {"measurement": "relative density (R.D.) of remaining BAR peptide after 5 minutes with P. gingivalis SMF1 and rMfa1 (relative density)", "setting": "[1]", "result": 47.3},
      {"measurement": "relative density (R.D.) of remaining BAR peptide after 30 minutes with P. gingivalis SMF1 and rMfa1 (relative density)", "setting": "[1]", "result": 8.2}
    ]},
    {"molecule": "BAR-II, derivative of the BAR peptide containing the Arg/Asn1182 and Ile/Val1185 substitutions", "values": [
      {"measurement": "I50 of inhibition of P. gingivalis adherence and biofilm formation", "setting": "[2]", "result": 0.52, "unit": "µM"},
      {"measurement": "fold difference of I50 against BAR", "setting": "[2]", "result": 2.5, "unit": "fold"},
      {"measurement": "inhibition of adherence and formation of P. gingivalis microcolonies on the streptococcal substrate at 0.34 µM peptide", "setting": "[2]", "result": 25, "unit": "%"},
      {"measurement": "inhibition of adherence and formation of P. gingivalis microcolonies on the streptococcal substrate at 0.85 µM peptide", "setting": "[2]", "result": 82, "unit": "%"}
    ]},
    {"molecule": "BAR-III, cyclic conformationally constrained disulfide bridged BAR peptide with Cys substituted for Leu1177 and Leu1191", "values": [
      {"measurement": "specific activity of biofilm inhibition against BAR (fold less than BAR)", "setting": "[2]", "result": 13}
    ]},
    {"molecule": "BAR-X, BAR analog in which the internal variable residues in VXXLL were altered to Pro and Gly (VPGLL) (peptide)", "values": [
      {"measurement": "inhibition of biofilm formation at 3.38 µM peptide", "setting": "[2]", "result": 15, "unit": "%"}
    ]},
    {"molecule": "BAR-XI, BAR analog in which the positively charged Lys residues flanking VXXLL were altered to Asp (peptide)", "values": [
      {"measurement": "inhibition of biofilm formation", "setting": "[2]", "result": 40, "unit": "%"}
    ]},
    {"molecule": "LEAAPKKVQDLLKKANITVKGAFQLFS", "values": [
      {"measurement": "% inhibition of microcolony formation relative to 0 µM, 0.169 µM BAR, with pepstatin A", "setting": "[3]", "result": 19.9, "unit": "%"},
      {"measurement": "% inhibition of microcolony formation relative to 0 µM, 0.169 µM BAR, without pepstatin A", "setting": "[3]", "result": 4.99, "unit": "%"},
      {"measurement": "% inhibition of microcolony formation relative to 0 µM, 0.338 µM BAR, with pepstatin A", "setting": "[3]", "result": 44.6, "unit": "%"},
      {"measurement": "% inhibition of microcolony formation relative to 0 µM, 0.338 µM BAR, without pepstatin A", "setting": "[3]", "result": 18.6, "unit": "%"},
      {"measurement": "% inhibition of microcolony formation relative to 0 µM, 0.845 µM BAR, with pepstatin A", "setting": "[3]", "result": 67.7, "unit": "%"},
      {"measurement": "% inhibition of microcolony formation relative to 0 µM, 0.845 µM BAR, without pepstatin A", "setting": "[3]", "result": 42.5, "unit": "%"},
      {"measurement": "% inhibition of microcolony formation relative to 0 µM, 1.65 µM BAR, with pepstatin A", "setting": "[3]", "result": 97.8, "unit": "%"},
      {"measurement": "% inhibition of microcolony formation relative to 0 µM, 1.65 µM BAR, without pepstatin A", "setting": "[3]", "result": 93.4, "unit": "%"}
    ]}
  ]
}
